Source: the supplement of paper PMC10567573

B1: FUT8 (parent)
chain: YPSYKVREKIETVKYPTYPEAEK

Variants of: B1
Assay: protein stability index of a GFP-peptide fusion (GPS, HEK-293T) (PSI 1-6); higher = more stable
Settings: c terminus: native
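Further: lentivirally expressed fusions sorted by FACS into six bins by GFP to DsRed ratio, PSI derived from sequencing read proportions per bin multiplied by bin number.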

Variant	protein stability index
YPSYKVREKIETLKYPTYPEAEK [V13L]	4.29
YPSYKVREKIETMKYPTYPEAEK [V13M]	3.7
YPSYKVREKIETNKYPTYPEAEK [V13N]	4.26
YPSYKVREKIETPKYPTYPEAEK [V13P]	4.24
YPSYKVREKIETQKYPTYPEAEK [V13Q]	4.49
YPSYKVREKIETRKYPTYPEAEK [V13R]	4.34
YPSYKVREKIETSKYPTYPEAEK [V13S]	4.69
YPSYKVREKIETTKYPTYPEAEK [V13T]	4.18
YPSYKVREKIETWKYPTYPEAEK [V13W]	3.04
YPSYKVREKIETYKYPTYPEAEK [V13Y]	3.72
YPSYKVREKIETVAYPTYPEAEK [K14A]	4.17
YPSYKVREKIETVCYPTYPEAEK [K14C]	4.18
YPSYKVREKIETVEYPTYPEAEK [K14E]	4.03
YPSYKVREKIETVFYPTYPEAEK [K14F]	2.73
YPSYKVREKIETVGYPTYPEAEK [K14G]	4.98
YPSYKVREKIETVHYPTYPEAEK [K14H]	3.95
YPSYKVREKIETVIYPTYPEAEK [K14I]	3.88
YPSYKVREKIETVLYPTYPEAEK [K14L]	2.97
YPSYKVREKIETVMYPTYPEAEK [K14M]	3.85
YPSYKVREKIETVNYPTYPEAEK [K14N]	4.62
YPSYKVREKIETVPYPTYPEAEK [K14P]	4.09
YPSYKVREKIETVQYPTYPEAEK [K14Q]	4.21
YPSYKVREKIETVRYPTYPEAEK [K14R]	4.27
YPSYKVREKIETVSYPTYPEAEK [K14S]	4.44
YPSYKVREKIETVTYPTYPEAEK [K14T]	3.61

Variant	protein stability index
YPSYKVREKIETVVYPTYPEAEK [K14V]	3.65
YPSYKVREKIETVWYPTYPEAEK [K14W]	1.68
YPSYKVREKIETVYYPTYPEAEK [K14Y]	3.43
YPSYKVREKIETVKAPTYPEAEK [Y15A]	3.39
YPSYKVREKIETVKCPTYPEAEK [Y15C]	3.88
YPSYKVREKIETVKDPTYPEAEK [Y15D]	5.2
YPSYKVREKIETVKEPTYPEAEK [Y15E]	4.59
YPSYKVREKIETVKFPTYPEAEK [Y15F]	4.49
YPSYKVREKIETVKGPTYPEAEK [Y15G]	4.85
YPSYKVREKIETVKHPTYPEAEK [Y15H]	4.72
YPSYKVREKIETVKIPTYPEAEK [Y15I]	4.58
YPSYKVREKIETVKKPTYPEAEK [Y15K]	5.03
YPSYKVREKIETVKLPTYPEAEK [Y15L]	4.33
YPSYKVREKIETVKMPTYPEAEK [Y15M]	4.48
YPSYKVREKIETVKPPTYPEAEK [Y15P]	4.45
YPSYKVREKIETVKQPTYPEAEK [Y15Q]	4.77
YPSYKVREKIETVKRPTYPEAEK [Y15R]	4.22
YPSYKVREKIETVKSPTYPEAEK [Y15S]	4.64
YPSYKVREKIETVKTPTYPEAEK [Y15T]	3.77
YPSYKVREKIETVKVPTYPEAEK [Y15V]	4.18
YPSYKVREKIETVKWPTYPEAEK [Y15W]	2.88
YPSYKVREKIETVKYATYPEAEK [P16A]	3.89
YPSYKVREKIETVKYCTYPEAEK [P16C]	3.7
YPSYKVREKIETVKYDTYPEAEK [P16D]	4.4
YPSYKVREKIETVKYETYPEAEK [P16E]	4.29

Variant	protein stability index
YPSYKVREKIETVKYFTYPEAEK [P16F]	4.79
YPSYKVREKIETVKYGTYPEAEK [P16G]	4.28
YPSYKVREKIETVKYHTYPEAEK [P16H]	4.06
YPSYKVREKIETVKYITYPEAEK [P16I]	3.65
YPSYKVREKIETVKYKTYPEAEK [P16K]	4.19
YPSYKVREKIETVKYLTYPEAEK [P16L]	4.03
YPSYKVREKIETVKYMTYPEAEK [P16M]	4
YPSYKVREKIETVKYNTYPEAEK [P16N]	4.12
YPSYKVREKIETVKYQTYPEAEK [P16Q]	4.14
YPSYKVREKIETVKYRTYPEAEK [P16R]	3.95
YPSYKVREKIETVKYSTYPEAEK [P16S]	3.75
YPSYKVREKIETVKYTTYPEAEK [P16T]	4.13
YPSYKVREKIETVKYVTYPEAEK [P16V]	4.6
YPSYKVREKIETVKYWTYPEAEK [P16W]	2.78
YPSYKVREKIETVKYYTYPEAEK [P16Y]	3.62
YPSYKVREKIETVKYPAYPEAEK [T17A]	4.56
YPSYKVREKIETVKYPCYPEAEK [T17C]	3.8
YPSYKVREKIETVKYPDYPEAEK [T17D]	3.7
YPSYKVREKIETVKYPEYPEAEK [T17E]	4.43
YPSYKVREKIETVKYPFYPEAEK [T17F]	3.45
YPSYKVREKIETVKYPGYPEAEK [T17G]	4.02
YPSYKVREKIETVKYPHYPEAEK [T17H]	4.41
YPSYKVREKIETVKYPIYPEAEK [T17I]	3.7
YPSYKVREKIETVKYPKYPEAEK [T17K]	4.69
YPSYKVREKIETVKYPLYPEAEK [T17L]	3.6

Variant	protein stability index
YPSYKVREKIETVKYPMYPEAEK [T17M]	3.77
YPSYKVREKIETVKYPNYPEAEK [T17N]	4.75
YPSYKVREKIETVKYPPYPEAEK [T17P]	4.46
YPSYKVREKIETVKYPQYPEAEK [T17Q]	4.3
YPSYKVREKIETVKYPRYPEAEK [T17R]	4.34
YPSYKVREKIETVKYPSYPEAEK [T17S]	4.79
YPSYKVREKIETVKYPVYPEAEK [T17V]	4
YPSYKVREKIETVKYPWYPEAEK [T17W]	1.94
YPSYKVREKIETVKYPYYPEAEK [T17Y]	2.87
YPSYKVREKIETVKYPTAPEAEK [Y18A]	4.08
YPSYKVREKIETVKYPTCPEAEK [Y18C]	4.98
YPSYKVREKIETVKYPTDPEAEK [Y18D]	4.47
YPSYKVREKIETVKYPTEPEAEK [Y18E]	4.65
YPSYKVREKIETVKYPTFPEAEK [Y18F]	3.89
YPSYKVREKIETVKYPTGPEAEK [Y18G]	3.52
YPSYKVREKIETVKYPTHPEAEK [Y18H]	4.31
YPSYKVREKIETVKYPTIPEAEK [Y18I]	3.96
YPSYKVREKIETVKYPTKPEAEK [Y18K]	2.85
YPSYKVREKIETVKYPTLPEAEK [Y18L]	3.87
YPSYKVREKIETVKYPTMPEAEK [Y18M]	4.15
YPSYKVREKIETVKYPTNPEAEK [Y18N]	4.63
YPSYKVREKIETVKYPTPPEAEK [Y18P]	5.06
